# Experimental data taken from patent US12173330B2, “Method for producing hydroxy-L-pipecolic acid” (API CORPORATION, priority 2015, dated 2024).
# Experiments:
# [1] = system: O=C(O)[C@@H]1CCCCN1; assay: purified protein, by the assay type
# [2] = system: O=C(O)[C@@H]1CCCN1; assay: purified protein, by the assay type; details: other: substrate: L-proline, 20 mmol/L 2-oxoglutaric acid, 30° C.
# [3] = other: substrate: L-pipecolic acid, 20 mmol/L 2-oxoglutaric acid, 30° C.
Substance,Km ([1]; 30.0 °C) [mM],"Km [1, 3] [mM]",Km [2] [mM]
"Gibberella zeae PH-1 L-pipecolic acid trans-4-hydroxylase GzPH, SEQ ID NO: 16 (Fusarium graminearum PH-1)",4.72,,
"Segniliparus rugosus ATCC BAA-974 L-pipecolic acid cis-5-hydroxylase SruPH, SEQ ID NO: 4 (Segniliparus rugosus ATCC BAA-974)",,1.09,0.40
"Colletotrichum gloeosporioides Nara qc5 L-pipecolic acid trans-4-hydroxylase CgPH, SEQ ID NO: 12 (Colletotrichum fructicola Nara gc5)",,8.56,
